# According to the RNAGym collection of RNA variant scans (doi:10.1073/pnas.2313332121):
# B1: TPR t1 (parent)
# chain: GACCAAUCUGCCCUCAGAGCUCGAGAACAUCUUCGGAUGCAGAGGAGGCAGGCUUCGGUGGCGCGAUAGCGCCAACGUCCUCAACCUCCAAUGCAUCCCACCACAUGAUGAUGCCUGAAGAGCCUUGGUUUUUUG
# Variants of: B1
# Assay: polymerase ribozyme fitness, log enrichment relative to wild type (log ratio); higher = more active; in vitro selection for triplet polymerase activity
# How it was run: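 Each subunit of a heterodimeric triplet polymerase ribozyme was mutagenized into a library by PCR, transcribed, and subjected to one round of in vitro selection, run in triplicate. Libraries were annealed with a biotinylated primer, the partner subunit and triplets, incubated frozen at −7 °C, and extended constructs were gel-excised, captured on streptavidin beads and recovered by RT-PCR. Input and output libraries were sequenced on Illumina, keeping genotypes with ≥10 input reads and ≥1 read per output. Fitness is log base 2 of genotype enrichment divided by wild-type enrichment, from inverse-variance-weighted replicate averages.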
row,Variant,polymerase ribozyme fitness (log ratio)
1,G10U C82G G110A,-1.83
2,C11G G48C G110A,-1.89
3,C11G G63U,-0.927
4,C11G G77C,-0.624
5,C11A U38G C56U C86G U112C,-2.57
6,G10C C20A,-3.95
7,C11G A37C A41C C101A A121C G122U,-1.01
8,G10U C114U,-2.39
9,G10U U30C A37G C56U C73U,-4.17
10,G10C U30C G71A G117A,-5.64
11,G10U A37U G120C U129C,0.637
12,C11A C13G C20U C53U C64U U78G,-3.27
13,G10U G47U G110U G117U G122A,-4.52
14,G10U A90G,-0.702
15,G10U A95U G128A,-3.44
16,C11A G107C G113A C124A,-6.29
17,C11A U132C,-1.49
18,G10U C22U A46G U54G C56G G61A A74U U92A C114A U116A,-6.68
19,G10C C73A G128A,-2
20,C11U A16U G39C G42A C56U,-3.73
21,G10U C11G G47C G58A C62G,-3.87
22,C11G G39A C49G C53U G69A G120C,-2.46
23,C11G U21G C53A U55C A68G,-5
24,G10U C53U A91U U92A C97U,-6.09

row,Variant,polymerase ribozyme fitness (log ratio)
1,C11G C53U C82U,0.05
2,C11A G47A G77A,-2.62
3,G10U C53U G65A A91U C104G A121U,-7.6
4,C11G G63C U96A,-0.969
5,C11G C64A,-5.88
6,C11A G120U,0.0217
7,C11A A84C C85U U87A C89G C124A,-4.77
8,C11G G61A A90U U109G G117A,-6.12
9,C11A C40U G48C C79U C102U,-5.15
10,C11A A41U G71U C72U A100U A103G C115A,-6.78
11,C11G U14A A46U G61A C62U,-2.33
12,C11G G120C G135C,2.47
13,C11A A29U G36A C124U,-4.08
14,C11A G47A C62A,-3.74
15,C11G C64U A74U C123U,0.798
16,C11G A74U A108G,-2.79
17,C11A C13G U32C A50U G93U U96G U112A U131G,-4.75
18,C11G G35A A84U,-4.58
19,C11G C49U C72G,-0.598
20,C11G A41U G47C U59A A66U,-6.01
21,C11A A37U G63C U116G,-5.29
22,C11A A111C U131A,-2.03
23,G10U C53U,0.0146
24,G10U C79A,-0.723

row,Variant,polymerase ribozyme fitness (log ratio)
1,G10U U21G A46U,-3.02
2,C11A A37G U81G,-5.66
3,C11A U81A,-2.74
4,G10U A43G G47A A74G,-3.06
5,C11A G19C G57U,-5.03
6,C11G C15U C20U C70G,-3.71
7,C11A G39U C86U C104U G110A,-2.77
8,G10C C13A G57U G61C A111U,-5.2
9,C11G G57U U67G G120A,-6.74
10,C11A A111C,-1.42
11,C11A G52C A74C A111C,-1.71
12,C11A A27U C34A C72G C97A G120U G127A U129C,-6
13,C11A U21G A41G A121U,-0.0986
14,G10U A46U C73U C88A U133A,-2.31
15,C11G G61A,1
16,C11G G61C,-1.35
17,C11G C20U,-0.656
18,G10C G77U A111U,-4.57
19,C11G A29G C72G C123A,-0.598
20,C11A U32C A37C,-1.07
21,C11A C49A C53U A90U U126C,-4.54
22,C11G G107C U112C C123U G128C,-5.88
23,G10C C49A G71A,-2.07
24,G10C C11U C104A,-0.93

row,Variant,polymerase ribozyme fitness (log ratio)
1,C11A A18C A43C C53U,-4.45
2,G10U A84G C86A,-0.969
3,C11A G36C,-2.32
4,C11G C73U C114U,-1.42
5,G10U G45A U106A,-0.0856
6,C11G C64U C114G C115A C123G C124A,-4.26
7,C11A C70U C76A,-3.78
8,C11A A46U,-2.08
9,C11A G57U,-1.56
10,C11G A37U C70A A83C A121C,0.293
11,G10C C20A G39C A46C,-5.66
12,C11A A83G C85U G120C,0.982
13,C11G C114A,-1.06
14,C11G C12U A50G G71A U133G,-4.01
15,C11G G36A C73U,-0.782
16,C11G A119G,0.484
17,G10U G35A G117C,-6.56
18,C11G A46U C56U C70A C85A C104U,-6.28
19,C11A A27G A41U C49G G61U G120A,-3.04
20,C11G C70G G77U A103C A121C U132A,-5.85
21,C11G U21A A24U G60U C94G G120A,-7.06
22,G10C G63A A75G C123U,-0.173
23,G10U A37U G52A G77C G120U,0.713
24,C11G A66U U106G,-3.36

row,Variant,polymerase ribozyme fitness (log ratio)
1,C11G G117C,-1.94
2,C11A G58C C72U G122A U125A,-2.52
3,C11G A27G G39U G107U A121G U125G,-6.41
4,C11A C89U G135U,-2.46
5,G10U U14A C73A A83U,-1.57
6,C11A G48C G71A U87G U106G A121U,-2.38
7,C11G C76A U112A G117C G128C U134G,-5.47
8,C11G C31U G52A U96G G120C,-5.5
9,C11G G17A G60A C79G A90U C99A,-7.47
10,C11A U81C A90G,-2.45
11,C11U A18G,-3.57
12,G10C G42A A43U C80A U132A,-5.05
13,G10C G63A,-1.49
14,G10U C62U C88U C89G A121G U132C,0.563
15,C11A G69U G120A U132A,2
16,C11A G45U,-2.48
17,C11A C34G G45A C53U C70G C101A U106A G117C,-7.32
18,C11G A29C U55G A84G G113A,-4.47
19,C11A C13U G19A C56G C72U,-4.6
20,C11G G39U C49G C64U G117C,-4.26
21,C11G C12G,-1.01
22,G10U A18G A43C C72U C80U C85U G120U,-3.18
23,C11G C22G G36A A83C,-3.71
24,C11G C49A G61A,1.07

row,Variant,polymerase ribozyme fitness (log ratio)
1,C11G A46U G60U A74C A121U,-3.52
2,G10C G42C,-2.24
3,C11A U59A,-1.59
4,G10U C56A A74G U132C,-1.83
5,G10U G61A,0.0248
6,C11A C12U C40A C56U C89A G122U,-2.66
7,C11G C15A G19U G69C C98A C114U,-6.19
8,C11G G63C A105U C123G,-2.11
9,G10C C70G,-3.67
10,G10U C62U,-0.108
11,G10U C62A,-1.53
12,G10U G39C,-0.652
13,G10U U38G A41G,-1.27
14,C11G C101U,0.142
15,C11G C34G C49U U106C C115G C124G,-6.56
16,C11G C40A C72U C101U C104U,-1.72
17,C11A C40G,-3.12
18,G10U G47U A74G G113U C123G U126A,-3.52
19,C11G G36U G63A C98G,-6.37
20,C11G C34A G61U C62U C80G C86U G120A,-6.66
21,C11A G117U,-3.48
22,C11A G117A,-3.3
23,G10C C89G A121C,0.737
24,C11A C15U G48U A90G U112A,-2.88

row,Variant,polymerase ribozyme fitness (log ratio)
1,G10C C72U A118G,-1.84
2,G10U C53G G61C A84U,-1.21
3,G10U U21G C64A A95G C123U U125A,-6.83
4,C11A C28G G44A C70U A121C,-4.42
5,C11A G42U C70U,-3.6
6,G10U G48C,-0.778
7,C11G G113A A119U G120A,-0.282
8,C11A C85U U133G,-2.41
9,C11A C79U,-1.59
10,C11A A46U C64A G113U,-6.19
11,C11G A29G A43C C49A A74C C85G G113A G135U,-3.78
12,G10U A111U,-3.44
13,C11U A18U C34U C64G C79U C123A,-5.92
14,G10U G39U G77C A100C,-2.58
15,G10C G52U C53A,-1.16
16,G10U C56U,0.114
17,C11G C15A,-0.327
18,C11A C73U,-1.2
19,C11A C115U G122U,-0.883
20,C11G C72G,-0.147
21,C11A C72U A75G U129A,-3.18
22,C11G U38G C79U,-1.02
23,C11A C53G C64U C97U C101G G135C,-3.13
